Measured values: PMC8277577

Target: C144 (human)
Experiment: BLI

## SARS-CoV-2 receptor binding domain (RBD) (from UniProt P0DTC2 319-539) (domain or fragment)
  Kd: 149 nM
